Test results from publication PMC4137108.

Key:
[1] = biological target: Apaf-1 (human (endogenous in HeLa)) (UniProt O14727)
[2] = biological target: Apaf-1 (human (endogenous in HeLa)) (UniProt O14727); remark: listed apart in the source

Sequence of UniProt O14727 (O14727 whole entry): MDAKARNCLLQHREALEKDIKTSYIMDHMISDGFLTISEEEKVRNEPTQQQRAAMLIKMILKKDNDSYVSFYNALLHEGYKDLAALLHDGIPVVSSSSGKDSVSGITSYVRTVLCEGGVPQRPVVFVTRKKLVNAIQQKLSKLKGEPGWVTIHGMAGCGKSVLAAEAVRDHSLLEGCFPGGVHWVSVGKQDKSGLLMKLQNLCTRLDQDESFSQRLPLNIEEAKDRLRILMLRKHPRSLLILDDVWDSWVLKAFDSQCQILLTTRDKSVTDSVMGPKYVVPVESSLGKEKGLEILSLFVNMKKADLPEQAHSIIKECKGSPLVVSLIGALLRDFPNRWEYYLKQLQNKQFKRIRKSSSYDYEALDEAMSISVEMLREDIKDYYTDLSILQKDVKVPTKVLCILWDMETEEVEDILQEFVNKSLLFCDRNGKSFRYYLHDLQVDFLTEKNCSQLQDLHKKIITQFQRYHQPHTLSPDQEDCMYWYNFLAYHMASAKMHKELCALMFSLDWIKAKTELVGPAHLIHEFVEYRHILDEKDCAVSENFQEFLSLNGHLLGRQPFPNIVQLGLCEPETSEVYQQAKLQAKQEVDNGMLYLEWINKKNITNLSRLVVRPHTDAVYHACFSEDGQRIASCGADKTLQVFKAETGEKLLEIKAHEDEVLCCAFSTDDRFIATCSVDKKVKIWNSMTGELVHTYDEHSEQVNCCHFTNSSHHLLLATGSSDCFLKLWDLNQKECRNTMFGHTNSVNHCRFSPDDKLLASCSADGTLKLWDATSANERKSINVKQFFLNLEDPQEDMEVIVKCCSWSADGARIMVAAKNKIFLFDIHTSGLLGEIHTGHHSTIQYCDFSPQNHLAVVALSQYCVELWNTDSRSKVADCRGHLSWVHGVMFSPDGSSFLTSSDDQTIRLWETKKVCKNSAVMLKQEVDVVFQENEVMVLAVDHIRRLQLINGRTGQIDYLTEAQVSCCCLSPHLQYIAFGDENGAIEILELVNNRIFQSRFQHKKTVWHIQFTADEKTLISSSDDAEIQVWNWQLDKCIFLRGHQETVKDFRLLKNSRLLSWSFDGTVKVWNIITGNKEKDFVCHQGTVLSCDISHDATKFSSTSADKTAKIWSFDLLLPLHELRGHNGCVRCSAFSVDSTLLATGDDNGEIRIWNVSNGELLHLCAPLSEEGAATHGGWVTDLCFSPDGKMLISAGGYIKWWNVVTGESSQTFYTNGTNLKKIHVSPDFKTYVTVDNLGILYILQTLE

cell-free caspase 3 activation in HeLa cytosol (DEVD-pNA), relative to non-modified Cyt c (the reference itself) [1]: 100%
cell-free caspase 9 activation in HeLa cytosol (LEHD-pNA), relative to non-modified Cyt c (the reference itself) [1]: 100%
relative caspase 3 activation in a cell-free system after precipitation of Cyt c with acetone (water-organic solvent interface) [2]: 51%
relative caspase 3 activation in a cell-free system after precipitation of Cyt c with acetonitrile (water-organic solvent interface) [2]: 64%
Substance: Cytochrome c from equine heart (from UniProt P00004 1-105) (natural protein)
